Biological target: transient receptor potential (TRP) channels
Assay: SPR; plasmonic tilted fiber Bragg grating (fiber-optic SPR) probe; TRP immobilised on the 50 nm gold film through 11-mercaptoundecanoic acid and EDC/NHS; CaM (0.1 nM to 10 uM) injected in a microfluidic capillary; 50 mM Tris-HCl, 100 mM NaCl, 1 mM DTT, 1 mM CaCl2, pH 7.5; read-out is the intensity change of a cladding mode

intensity change of the selected cladding mode at 1 uM CaM, 30 min: 1.7 dB
Substance: calmodulin (from UniProt P0DP23 1-149) (natural protein)

Source: article PMC8231783
